Source: the RNAGym collection of RNA variant scans (doi:10.1093/molbev/msab373)

B1: Azoarcus group I ribozyme (parent)
chain: GUGCCUUGCGCCGGGAAACCACGCAAGGGAUGGUGUCAAAUUCGGCGAAACCUAAGCGCCCGCCCGGGCGUAUGGCAACGCCGAGCCAAGCUUCGGCGCCUGCGCCGAUGAAGGUGUAGAGACUAGACGGCACCCACCUAAGGCAAACGCUAUGGUGAAGGCAUAGUCCAGGGAGUGGCGAAAGUCACACAAACCGG

Variants of: B1
Test: reverse-splicing fitness (ratio to wild type); higher = more active; in vitro selection; Mg2+ level not given
Method in brief: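 An in vitro group I ribozyme library with randomized positions was T7-transcribed and gel-purified. In triplicate, 10 pmol RNA in EPPS pH 7.5 was reacted with 50 pmoles of a 30-nt RNA substrate for 1 h at 37 °C across several added MgCl2 levels (1–48 mM), then stopped with EDTA. Products were reverse transcribed from a substrate-complementary primer, PCR-amplified and sequenced (HiSeq 4000). Fitness is a variant's read proportion after selection over that before, normalised to wild type.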

| Variant | reverse-splicing fitness |
| --- | --- |
| C82U A111C C150G C169G U176G | 0.00523 |
| C82U A111C C150G C169G U176A | 0.00576 |
| C82U A111C C150G C169G U176C | 0.00488 |
| C82U A111G A120C | 0.0555 |
| C82U A111G A120C A145G C150G C169G | 0.00678 |
| C82U A111G A120C A145G C150G C169A | 0.00845 |
| C82U A111G A120C A145G C150G C169U | 0.00846 |
| C82U A111C A145U C150U U176G | 0.0152 |
| C82U A111C A145U C150U U176A | 0.0489 |
| C82U A111C A145U C150U U176C | 0.0704 |
| C82U A111C A145U C169G | 0.0103 |
| C82U A111C A145U C169A | 0.00715 |
| C82U A111C A145U C169U | 0.0114 |
| C82U A111C A145U C150G C169A | 0.00756 |
| C82U A111C A145U C150G C169G | 0.00721 |
| C82U A111C A145U C150G C169U | 0.00877 |
| C82U A111G A120C A145U | 0.0519 |
| C82U A111G A120C A145C | 0.0519 |
| C82U A111G A120C A145G | 0.0552 |
| C82U A111G A120C A145C C169G U176A | 0.0164 |
| C82U A111G A120C A145C C169G U176G | 0.00381 |

| Variant | reverse-splicing fitness |
| --- | --- |
| C82U A111G A120C A145C C169G U176C | 0.00852 |
| C82U A111G A120C A145G C150U C169A U176C | 0.0152 |
| C82U A111G A120C A145G C150U C169A U176A | 0.0135 |
| C82U A111G A120C A145G C150U C169A U176G | 0.00429 |
| C82U A111C A145U C150A C169U | 0.0103 |
| C82U A111C A145U C150A C169G | 0.00682 |
| C82U A111C A145U C150A C169A | 0.00884 |
| C82U A111C A145U C169A U176A | 0.0129 |
| C82U A111C A145U C169A U176C | 0.0139 |
| C82U A111C A145U C169A U176G | 0.00703 |
| C82U A111C A145G C150G C169U | 0.00879 |
| C82U A111C A145G C150G C169A | 0.0079 |
| C82U A111C A145G C150G C169G | 0.00689 |
| C82U A111C A145G C169U U176A | 0.0178 |
| C82U A111C A145G C169U U176C | 0.0148 |
| C82U A111C A145G C169U U176G | 0.00688 |
| C82U A111C A145U C150U C169A | 0.00889 |
| C82U A111C A145U C150U C169U | 0.0107 |
| C82U A111C A145U C150U C169G | 0.00836 |
| C82U A111G A120C A145G C150A C169A U176A | 0.0157 |
| C82U A111G A120C A145G C150A C169A U176C | 0.018 |

| Variant | reverse-splicing fitness |
| --- | --- |
| C82U A111G A120C A145G C150A C169A U176G | 0.00589 |
| C82U A111C A145G C150G C169A U176A | 0.0123 |
| C82U A111C A145G C150G C169A U176C | 0.0111 |
| C82U A111C A145G C150G C169A U176G | 0.0072 |
| C82U A111G A120C A145U C150A U176C | 0.0125 |
| C82U A111G A120C A145U C150A U176G | 0.0049 |
| C82U A111G A120C A145U C150A U176A | 0.0116 |
| C82U A111G A120C A145C C150A C169U | 0.00924 |
| C82U A111G A120C A145C C150A C169G | 0.00759 |
| C82U A111G A120C A145C C150A C169A | 0.00689 |
| C82U A111C A145G C150U C169U U176G | 0.00645 |
| C82U A111C A145G C150U C169U U176A | 0.0144 |
| C82U A111C A145G C150U C169U U176C | 0.0121 |
| C82U A111C A145U C150G C169U U176G | 0.00671 |
| C82U A111C A145U C150G C169U U176A | 0.00807 |
| C82U A111C A145U C150G C169U U176C | 0.0119 |
| C82U A111C A145G C150U C169G U176C | 0.0158 |
| C82U A111C A145G C150U C169G U176A | 0.0107 |
| C82U A111C A145G C150U C169G U176G | 0.00674 |
| C82U A111C A145U C150G | 0.0215 |
| C82U A111C A145U C150U | 0.148 |

| Variant | reverse-splicing fitness |
| --- | --- |
| C82U A111C A145U C150A | 0.0231 |
| C82U A111C A145U C150G U176A | 0.0108 |
| C82U A111C A145U C150G U176G | 0.00446 |
| C82U A111C A145U C150G U176C | 0.0156 |
| C82U A111G A120C A145U C150G | 0.00964 |
| C82U A111G A120C A145U C150A | 0.0105 |
| C82U A111C A145U C150U C169U U176G | 0.00669 |
| C82U A111C A145U C150U C169U U176A | 0.0154 |
| C82U A111C A145U C150U C169U U176C | 0.0136 |
| C82U A111C A145G C150G | 0.0275 |
| C82U A111C A145G C150U | 0.183 |
| C82U A111C A145G C150G C169U U176C | 0.00994 |
| C82U A111C A145G C150G C169U U176G | 0.0073 |
| C82U A111C A145G C150G C169U U176A | 0.0102 |
| C82U A111G A120C A145G C150G C169G U176C | 0.00625 |
| C82U A111G A120C A145G C150G C169G U176G | 0.00471 |
| C82U A111G A120C A145G C150G C169G U176A | 0.00909 |
| C82U A111G A120C A145G C150A C169U U176C | 0.014 |
| C82U A111G A120C A145G C150A C169U U176A | 0.015 |
| C82U A111G A120C A145G C150A C169U U176G | 0.00508 |
